Measurements published in paper PMC11919686, “Structural basis for Vipp1 membrane binding: from loose coats and carpets to ring and rod assemblies” (Nature Structural & Molecular Biology, 2024).
Substitutions are numbered along the chain they refer to.

Assays:
[1] = molecular target: the molecule itself; test: cryo-EM structure; urea-unfolded protein added to an EPL lipid film and refolded by dialysis against 10 mM Tris-HCl pH 8.0; single-particle helical reconstruction or rotational symmetry (tubes, stacked rings, rings)
[2] = molecular target: the molecule itself; test: cryo-EM structure; Vipp1 (α1–α6) with and without EPL membrane reconstitution; single-particle helical reconstruction of rods
[3] = molecular target: the molecule itself; test: negative-staining EM; protein refolded in the absence of membranes; 2% uranyl acetate

B1: Vesicle-inducing protein in plastids 1 (Vipp1), full length, Synechocystis sp. PCC 6803 (natural protein, UniProt Q55707 1-267, looked up)
chain: MGLFDRLGRVVRANLNDLVSKAEDPEKVLEQAVIDMQEDLVQLRQAVARTIAEEKRTEQRLNQDTQEAKKWEDRAKLALTNGEENLAREALARKKSLTDTAAAYQTQLAQQRTMSENLRRNLAALEAKISEAKTKKNMLQARAKAAKANAELQQTLGGLGTSSATSAFERMENKVLDMEATSQAAGELAGFGIENQFAQLEASSGVEDELAALKASMAGGALPGTSAATPQLEAAPVDSSVPANNASQDDAVIDQELDDLRRRLNNL
notes: Vipp1 (sll0617) of Synechocystis sp; PCC 6803, full length; The C-terminal His-tag was cut off with 3C protease; residues of the 3C site may remain at the C-terminus; The deposited models hold 215 residues only; also called IM30; WT; not shown: His-tag, C-terminal, cleaved
binding result [1]: binds

B2: Vipp1 (α1–α6), truncation of helix α0 (aa 1–23) (domain or fragment, Synechocystis sp. PCC 6803, UniProt Q55707 24-267, looked up)
chain: DPEKVLEQAVIDMQEDLVQLRQAVARTIAEEKRTEQRLNQDTQEAKKWEDRAKLALTNGEENLAREALARKKSLTDTAAAYQTQLAQQRTMSENLRRNLAALEAKISEAKTKKNMLQARAKAAKANAELQQTLGGLGTSSATSAFERMENKVLDMEATSQAAGELAGFGIENQFAQLEASSGVEDELAALKASMAGGALPGTSAATPQLEAAPVDSSVPANNASQDDAVIDQELDDLRRRLNNL
notes: Vipp1 (sll0617) of Synechocystis sp; PCC 6803 without helix α0 (aa 1–23 truncated); The models were built from PDB 7O3W with aa 1–22 removed, whereas the construct lacks aa 1–23; Residues of the 3C site may remain at the C-terminus; also called Vipp1(α1-6); truncated Vipp1 lacking α0; not shown: His-tag, C-terminal, cleaved
binding result [2]: binds

B3: Vipp1 dL10Ala (substitution of aa 157–166 to alanine) (natural protein, Synechocystis sp. PCC 6803, UniProt Q55707 1-267, looked up)
chain: B1 chain with G157A, G158A, L159A, G160A, T161A, S162A, S163A, T165A, S166A
notes: Vipp1 (sll0617) of Synechocystis sp; PCC 6803 with the hinge 2 region (aa 157–166) replaced by ten alanines; The methods describe the denaturing purification and tag cleavage only for Vipp1 and Vipp1 (α1–α6); this mutant was probably handled in the same way; also called Vipp1dlA10; plasticity-restrained Vipp1 mutant; source: E. coli C41; reconstituted with EPL lipids or without membranes
binding result [1]: binds

B4: Vipp1 dL10 (truncation of aa 157–166) (natural protein, Synechocystis sp. PCC 6803, UniProt Q55707 1-267, looked up)
chain: MGLFDRLGRVVRANLNDLVSKAEDPEKVLEQAVIDMQEDLVQLRQAVARTIAEEKRTEQRLNQDTQEAKKWEDRAKLALTNGEENLAREALARKKSLTDTAAAYQTQLAQQRTMSENLRRNLAALEAKISEAKTKKNMLQARAKAAKANAELQQTLAFERMENKVLDMEATSQAAGELAGFGIENQFAQLEASSGVEDELAALKASMAGGALPGTSAATPQLEAAPVDSSVPANNASQDDAVIDQELDDLRRRLNNL
notes: Vipp1 (sll0617) of Synechocystis sp; PCC 6803 with aa 157–166 (hinge 2) deleted; The methods describe the purification and tag cleavage only for Vipp1 and Vipp1 (α1–α6); source: E. coli C41
binding result [3]: binds
